Substitutions are numbered along the chain they refer to.
Key:
FLAG-XPA = molecular target: T1, FLAG-XPA (human, UniProt P23025 1-273); assay: pull-down; FLAG-XPA (0.5 µg) immobilised on anti-DDDDK-tag magnetic beads; centrin-2 in buffer B, on ice 1 h; elution with FLAG peptide; immunoblot; no XPC/RAD23B; settings: both partners purified
T1 construct: XPA protein, human; also called purified recombinant XPA

[1] = molecular target: T2, FLAG-XPC/RAD23B-His complex (human, UniProt Q01831 1-940; P54727 1-409); assay: cell-based or functional assay
T2 sequence (looked up) 1: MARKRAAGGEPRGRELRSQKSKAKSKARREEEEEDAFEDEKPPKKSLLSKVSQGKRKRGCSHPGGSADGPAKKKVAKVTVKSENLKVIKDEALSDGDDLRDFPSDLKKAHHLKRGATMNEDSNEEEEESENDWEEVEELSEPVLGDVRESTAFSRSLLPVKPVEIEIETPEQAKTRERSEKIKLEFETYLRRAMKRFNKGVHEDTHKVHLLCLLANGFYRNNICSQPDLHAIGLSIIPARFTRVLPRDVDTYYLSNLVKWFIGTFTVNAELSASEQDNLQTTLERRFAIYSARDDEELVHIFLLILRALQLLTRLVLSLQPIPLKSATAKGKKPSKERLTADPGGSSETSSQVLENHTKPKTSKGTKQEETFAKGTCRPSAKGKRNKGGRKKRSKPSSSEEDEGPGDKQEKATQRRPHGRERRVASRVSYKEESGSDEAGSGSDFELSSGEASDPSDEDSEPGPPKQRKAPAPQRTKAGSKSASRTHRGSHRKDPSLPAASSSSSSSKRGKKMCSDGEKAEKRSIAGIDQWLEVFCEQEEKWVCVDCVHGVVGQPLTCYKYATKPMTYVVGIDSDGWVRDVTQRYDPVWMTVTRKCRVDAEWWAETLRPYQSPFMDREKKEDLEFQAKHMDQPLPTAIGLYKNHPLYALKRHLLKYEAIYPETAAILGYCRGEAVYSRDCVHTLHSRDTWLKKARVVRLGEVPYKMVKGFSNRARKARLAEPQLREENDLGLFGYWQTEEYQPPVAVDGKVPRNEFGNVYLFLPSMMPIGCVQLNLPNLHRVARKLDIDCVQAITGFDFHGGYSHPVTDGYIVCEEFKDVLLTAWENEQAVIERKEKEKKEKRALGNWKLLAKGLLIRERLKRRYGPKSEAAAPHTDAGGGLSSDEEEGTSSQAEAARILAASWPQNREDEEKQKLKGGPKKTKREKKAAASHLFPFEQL
T2 sequence (looked up) 2: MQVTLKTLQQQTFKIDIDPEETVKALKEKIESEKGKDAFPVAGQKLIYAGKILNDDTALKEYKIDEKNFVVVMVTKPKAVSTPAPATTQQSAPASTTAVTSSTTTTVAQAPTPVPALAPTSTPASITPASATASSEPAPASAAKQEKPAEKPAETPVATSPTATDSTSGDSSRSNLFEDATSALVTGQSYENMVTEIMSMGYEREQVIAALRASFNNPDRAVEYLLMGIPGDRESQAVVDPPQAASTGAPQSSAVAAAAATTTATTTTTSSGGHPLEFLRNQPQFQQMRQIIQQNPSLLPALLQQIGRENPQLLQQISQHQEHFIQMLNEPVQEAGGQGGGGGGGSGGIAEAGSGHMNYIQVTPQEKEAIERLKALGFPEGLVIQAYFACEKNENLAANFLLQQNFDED

[2] = molecular target: T2, FLAG-XPC/RAD23B-His complex; assay: pull-down; purified GST-centrin-2 (WT, N or C) incubated with FLAG-XPC/RAD23B-His, pulled down with anti-FLAG antibody beads; immunoblot; settings: both partners purified
[3] = molecular target: T2, FLAG-XPC/RAD23B-His complex; assay: pull-down; FLAG-XPC/RAD23B-His immobilised on anti-FLAG magnetic beads, incubated with centrin-2 (WT or C domain, GST removed), extensive washing, elution with FLAG peptide; reconstituted heterotrimers; settings: both partners purified

T1 sequence (P23025 whole entry): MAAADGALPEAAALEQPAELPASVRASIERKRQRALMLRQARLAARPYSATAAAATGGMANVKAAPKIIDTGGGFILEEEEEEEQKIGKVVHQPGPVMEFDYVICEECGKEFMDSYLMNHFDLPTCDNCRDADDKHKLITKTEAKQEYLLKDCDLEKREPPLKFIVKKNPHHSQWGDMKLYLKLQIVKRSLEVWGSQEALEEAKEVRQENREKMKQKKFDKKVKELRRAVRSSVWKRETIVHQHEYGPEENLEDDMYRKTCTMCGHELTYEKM

B1: centrin-2 (WT), detached from the GST tag (natural protein, human, UniProt P41208 1-172, looked up)
chain: MASNFKKANMASSSQRKRMSPKPELTEEQKQEIREAFDLFDADGTGTIDVKELKVAMRALGFEPKKEEIKKMISEIDKEGTGKMNFGDFLTVMTQKMSEKDTKEEILKAFKLFDDDETGKISFKNLKRVAKELGENLTDEELQEMIDEADRDGDGEVSEQEFLRIMKKTSLY
notes: centrin-2, human, wild type; also called WT centrin-2; full-length protein; source: E. coli BL21 (DE3), purified (GSTrap FF, HiTrap Phenyl FF), GST removed with PreScission protease; not shown: GST, N-terminal, cleaved
B1 was tested, and the binding result (FLAG-XPA) was “binds” and the “EMSA: enhancement of the binding of XPC/RAD23B to a 180 bp DNA with a 6-4PP by centrin-2 (WT)” value [1] was about 2 fold.

B2: centrin-2 M4 mutant, recombinant (natural protein, human, UniProt P41208 1-172, looked up)
chain: B1 chain with L112A, F113A, L133A, M145A
notes: centrin-2, human, point mutant M4 of the WT protein (intact N domain); also called M4 mutant of centrin-2; source: E. coli BL21 (DE3), purified (GSTrap FF, HiTrap Phenyl FF)
B2: binds (FLAG-XPA).

B3: GST-centrin-2 C domain (domain or fragment, human, UniProt P41208 94-172, looked up)
chain: TQKMSEKDTKEEILKAFKLFDDDETGKISFKNLKRVAKELGENLTDEELQEMIDEADRDGDGEVSEQEFLRIMKKTSLY
notes: centrin-2, human, carboxyl-terminal (C) domain, residues 94-172; source: E. coli BL21 (DE3), purified (GSTrap FF, HiTrap Phenyl FF); not shown: GST, N-terminal, kept
B3: binds [2].

B4: centrin-2 C domain, detached from the GST tag (domain or fragment, human, UniProt P41208 94-172, looked up)
chain: B3 chain
notes: centrin-2, human, carboxyl-terminal (C) domain, residues 94-172; also called the C domain alone; source: E. coli BL21 (DE3), purified (GSTrap FF, HiTrap Phenyl FF), GST removed with PreScission protease; not shown: GST, N-terminal, cleaved
B4: binds [3].

From publication PMC3737541, “Structure-function analysis of the EF-hand protein centrin-2 for its intracellular localization and nucleotide excision repair” (Nucleic Acids Research, 2013)
